The target in test [1] is T1, cyno monkey PD-1^ECD-hFc protein (cyno monkey, UniProt B0LAJ3 25-167).
T1 construct: also called cyno PD-1^ECD-hFc; not shown: human IgG Fc fragment (hFc) and its junction to the ECD
In words: ELISA, coated cyno PD-1ECD-hFc.

The target of test [2] is CD28 (human, UniProt P10747 19-152). The test is described as follows: ELISA, coated protein, antibody concentration not given.
Target sequence in this assay (P10747 19-152 limits assumed): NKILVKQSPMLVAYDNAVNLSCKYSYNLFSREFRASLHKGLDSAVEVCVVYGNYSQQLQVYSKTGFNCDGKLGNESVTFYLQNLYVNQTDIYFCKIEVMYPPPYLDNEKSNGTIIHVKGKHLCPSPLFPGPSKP
Another test deals with T2, B7.1 (human, UniProt P33681 35-242).
T2 sequence (looked up): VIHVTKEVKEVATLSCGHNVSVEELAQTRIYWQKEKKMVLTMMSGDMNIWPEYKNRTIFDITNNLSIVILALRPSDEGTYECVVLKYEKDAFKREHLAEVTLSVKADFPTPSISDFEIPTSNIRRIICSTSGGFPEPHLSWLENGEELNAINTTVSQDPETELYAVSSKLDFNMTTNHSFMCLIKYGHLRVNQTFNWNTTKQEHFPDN
The test is described as above.

In test [3] the target is T3, ICOS (human, UniProt Q9Y6W8 21-140, limits assumed).
T3 sequence (looked up): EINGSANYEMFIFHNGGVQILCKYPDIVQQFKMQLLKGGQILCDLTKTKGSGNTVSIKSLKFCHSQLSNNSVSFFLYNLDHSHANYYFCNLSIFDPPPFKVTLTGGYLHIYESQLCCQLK
The description is as above.

Test [4] addresses T4, CTLA4 (human, UniProt P16410 37-162, limits assumed).
T4 sequence (looked up): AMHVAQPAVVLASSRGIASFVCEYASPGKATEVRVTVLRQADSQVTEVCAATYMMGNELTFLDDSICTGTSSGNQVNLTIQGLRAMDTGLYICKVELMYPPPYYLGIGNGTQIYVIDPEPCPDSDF
The test is described as above.

Test [5] addresses CD28 (human, UniProt P10747 19-152). In words: ELISA on coated protein (Table 22).
Target sequence in this assay (P10747 19-152 limits assumed): as the sequence (P10747 19-152 limits assumed) above
The next test has as its target T5, B7-1 (human, UniProt P33681 35-242).
T5 sequence (looked up): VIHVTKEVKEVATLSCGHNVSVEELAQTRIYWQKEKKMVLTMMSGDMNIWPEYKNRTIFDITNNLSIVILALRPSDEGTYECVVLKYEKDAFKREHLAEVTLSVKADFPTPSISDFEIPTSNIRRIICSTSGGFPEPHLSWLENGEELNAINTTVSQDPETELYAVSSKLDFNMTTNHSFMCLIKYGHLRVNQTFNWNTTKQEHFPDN
In words: ELISA on coated protein (Table 22).

Test [6] addresses T6, ICOS (human, UniProt Q9Y6W8 21-140, limits assumed).
T6 sequence (looked up): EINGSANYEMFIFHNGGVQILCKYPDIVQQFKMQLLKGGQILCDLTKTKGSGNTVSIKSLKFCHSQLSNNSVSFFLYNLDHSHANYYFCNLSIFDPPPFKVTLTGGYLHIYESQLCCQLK
In words: ELISA on coated protein (Table 22).

The target of test [7] is T7, CTLA4 (human, UniProt P16410 37-162, limits assumed).
T7 sequence (looked up): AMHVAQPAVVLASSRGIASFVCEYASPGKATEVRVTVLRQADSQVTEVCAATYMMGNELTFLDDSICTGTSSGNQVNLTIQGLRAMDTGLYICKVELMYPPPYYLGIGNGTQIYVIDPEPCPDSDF
The test is described as follows: ELISA on coated protein (Table 22).

Test [8] has as its target T8, human PD-1^ECD-hFc protein (Immunogen A) (human, UniProt Q15116 25-167).
T8 construct: also called PD-1-hFc; hPD-1^ECD-hFc; not shown: human IgG Fc fragment (hFc)
In words: ELISA, coated human PD-1ECD-hFc.

The target of test [9] is T9, human PD-1, full length, on cells (human, UniProt Q15116 25-288).
T9 construct: whole, on cells; in the lymphocyte assays the natural PD-1 of human T cells/PBMCs; also called hPD-1; CHO-K1-hPD-1
The test is described as follows: flow cytometry on CHO-K1-hPD-1 cells.

Test [10] deals with T8, human PD-1^ECD-hFc protein (Immunogen A). The test is described as follows: ELISA, coated protein, antibody concentration not given.
The target of another test is T10, NC-Fc.
T10 construct: seemingly a negative control Fc protein
The description is as above.

T1 sequence (B0LAJ3 entry or part of it limits assumed): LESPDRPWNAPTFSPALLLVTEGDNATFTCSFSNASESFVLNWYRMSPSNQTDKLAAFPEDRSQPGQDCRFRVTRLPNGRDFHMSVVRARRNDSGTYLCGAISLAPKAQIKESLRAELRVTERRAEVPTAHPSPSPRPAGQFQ
T8 sequence (Q15116 25-167): as the sequence (B0LAJ3 entry or part of it limits assumed) above, with E2D, A10P, L19V, A35T, R75Q counted along it
T9 sequence (Q15116 25-288): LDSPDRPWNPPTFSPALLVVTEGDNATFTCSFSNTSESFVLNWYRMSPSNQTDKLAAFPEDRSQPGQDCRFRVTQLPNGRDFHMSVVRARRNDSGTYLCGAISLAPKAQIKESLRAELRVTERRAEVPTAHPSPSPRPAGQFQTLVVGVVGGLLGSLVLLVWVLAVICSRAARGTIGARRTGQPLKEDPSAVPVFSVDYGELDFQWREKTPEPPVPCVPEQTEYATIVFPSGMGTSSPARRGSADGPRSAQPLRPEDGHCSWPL

B1: fully human anti-PD-1 antibody 223G6B5 (antibody, human IgG4, V domains shown)
VH: QVQLQESGPGLVKPSETLSLTCAVSGHSIRGSYFWGWIRQPPGRGLEWIGSIYHSGSTYTNPSLKSRATISVDTSKNQFSLKLNSVTAADTAVYYCARDLDIATTRDYWGQGTLVTVSS
VL: DIQLTQSPSFLSASVGDRVTIICRASQGINNYLAWYQQKPGKAPKLLIYAASTLQSGVPSRFSGSGSGTEFTLTISSLQPEDFATYYCQQLDSYPRTFGQGTKVEIKR
With B1, in [1], the “OD450 nm at 0 nM” value was found to be 0.31 OD450, the “OD450 nm at 0.001 nM” value was determined as 0.33 OD450, the “OD450 nm at 0.01 nM” value is 0.83 OD450 and the “OD450 nm at 0.1 nM” value came to 2.5 OD450. In test [1], the “OD450 nm at 1 nM” value turned out to be 2.88 OD450 and the “OD450 nm at 100 nM” value came out at 2.85 OD450. The OD450 nm with CD28 [2] was determined as 0.05 OD450. Also, the OD450 nm with B7.1 was found to be 0.25 OD450. In addition, the OD450 nm with ICOS [3] came to 0.12 OD450. Also, the OD450 nm with CTLA4 [4] worked out at 0.13 OD450.

B2: fully human anti-PD-1 antibody 223G6B5 (antibody, human IgG4, V domains shown)
VH: QVQLQESGPGLVKPSETLSLTCAVSGHSIRGSYFWGWIRQPPGRGLEWIGSIYHSGSTYTNPSLKSRATISVDTSKNQFSLKLNSVTAADTAVYYCARDLDIATTRDYWGQGTLVTVSS
VL: DIQLTQSPSFLSASVGDRVTIICRASQGINNYLAWYQQKPGKAPKLLIYAASTLQSGVPSRFSGSGSGTEFTLTISSLQPEDFATYYCQQLDSYPRTFGQGTKVEIKR
notes: also called 223G6B5 (fully human, IgG4 S228P / kappa)
In the case of B2, the binding result in the test with CD28 [5], with B7-1, in the test with ICOS [6] and with CTLA4 [7] was “no binding” each time.

B3: fully human anti-PD-1 antibody 21G8F11 (antibody, human IgG4 S228P, kappa, V domains shown)
VH: EVQLLESGGGLAQPGGSLRLSCAASGFSFNTYLMHWVRQAPGKGLEWVSAISGGGGNTYYADSVKGRFTISRDNSKNTLYLQMNSLRAEDTAVYYCAKENRIPVAPFDYWGQGTLVTVSS
VL: DIQMTQSPSTLSASVGDRVTITCRASQSISTWLAWYQQKPGKAPKLLIYKASSLESGVPSRFSGSGSGTEFTLTISSLQPDDLATYYCQQYNSFSWTFGQGTKVEIKR
With B3, in [1], the “OD450 nm at 0 nM” value was determined as 0.19 OD450, the “OD450 nm at 0.0001 nM” value was found to be 0.15 OD450, the “OD450 nm at 0.001 nM” value is 0.22 OD450 and the “OD450 nm at 0.01 nM” value came to 0.51 OD450. Also, in [1], the “OD450 nm at 0.1 nM” value is 2.39 OD450, the “OD450 nm at 1 nM” value was found to be 2.99 OD450, the “OD450 nm at 10 nM” value is 3.02 OD450 and the “OD450 nm at 100 nM” value is 3 OD450. In addition, in test [8], the “OD450 nm at 0 nM” value was determined as 0.18 OD450, the “OD450 nm at 0.0001 nM” value worked out at 0.16 OD450, the “OD450 nm at 0.001 nM” value was 0.26 OD450 and the “OD450 nm at 0.01 nM” value amounted to 0.58 OD450. In test [8], the “OD450 nm at 0.1 nM” value was determined as 2.62 OD450, the “OD450 nm at 1 nM” value turned out to be 3.03 OD450, the “OD450 nm at 10 nM” value was determined as 3.02 OD450 and the “OD450 nm at 100 nM” value is 3.03 OD450. In addition, in test [9], the “MFI at 0 nM” value worked out at 48.8 MFI and the “MFI at 0.01 nM” value was found to be 1020 MFI. For the same molecule, the OD450 nm in test [10] was 2.7 OD450. The molecule further returned an OD450 nm with CD28 [2] of 0.27 OD450. The same molecule yielded an OD450 nm in the test with B7.1 of 0.25 OD450. For the same molecule, the OD450 nm in the test with ICOS [3] is 0.16 OD450. This molecule returned an OD450 nm in the test with CTLA4 [4] of 0.09 OD450. Further, the OD450 nm in the test with NC-Fc came to 0.21 OD450.

Values taken from US20180214548A1 (SHANGHAI YUNYI HEALTHCARE AND TECHNOLOGY, published 2018).
